Series [1] addresses T1, human LGR7/RXFP1 receptor (Homo sapiens, UniProt Q9HBX9).
T1 construct: cloned as 2271 base pair long DNA fragment; expressed in transfected cells; host or cells: CHO K1 (ATCC CCL-61) with CRE-luciferase reporter; receptor in pcDNA3.1(-)
T1 sequence (Q9HBX9 1-757): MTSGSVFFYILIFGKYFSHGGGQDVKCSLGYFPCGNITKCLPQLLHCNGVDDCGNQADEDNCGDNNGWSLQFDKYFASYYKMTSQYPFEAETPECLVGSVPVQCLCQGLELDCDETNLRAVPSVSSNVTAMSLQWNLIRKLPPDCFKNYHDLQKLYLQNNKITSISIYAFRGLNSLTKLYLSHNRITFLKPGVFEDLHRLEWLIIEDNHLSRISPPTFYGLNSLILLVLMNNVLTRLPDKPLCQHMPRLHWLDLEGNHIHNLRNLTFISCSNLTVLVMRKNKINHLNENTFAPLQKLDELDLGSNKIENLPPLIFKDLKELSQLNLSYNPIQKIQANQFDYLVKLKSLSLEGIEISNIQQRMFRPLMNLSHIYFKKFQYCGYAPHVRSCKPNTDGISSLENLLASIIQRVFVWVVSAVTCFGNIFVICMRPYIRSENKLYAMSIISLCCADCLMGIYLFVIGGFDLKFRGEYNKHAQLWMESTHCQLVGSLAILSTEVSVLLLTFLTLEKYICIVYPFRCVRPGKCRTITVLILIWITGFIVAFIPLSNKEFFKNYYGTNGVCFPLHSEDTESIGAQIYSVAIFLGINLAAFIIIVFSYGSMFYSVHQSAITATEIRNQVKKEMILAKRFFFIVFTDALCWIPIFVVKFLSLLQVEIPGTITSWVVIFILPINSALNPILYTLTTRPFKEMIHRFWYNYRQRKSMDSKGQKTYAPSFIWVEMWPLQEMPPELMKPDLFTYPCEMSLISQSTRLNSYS
The experiment in a line: Activity testing: CRE-luciferase reporter in CHO-CRE-LGR7 cell line. It is filed as cell-based. Particulars: for EC50 (M): luciferase after 6 hours, examples of three to five independent experiments. As for the experimental part: For stimulation, medium was exchanged by OptiMem (Gibco, #11058)+1% FCS containing different concentrations of the recombinantly expressed Relaxin variant proteins (usually starting at a concentration of 100 nM, followed by 1:2 dilutions). As positive control, commercially available recombinant expressed human Relaxin 2 (Genbank Accession number NP_604390.1) was used (R&D Systems, catalogue number 6586-RN-025). Subsequently, cells were incubated for 6 hours in a humified incubator at 5% carbon dioxide at 37° C. After 6 hours cells were tested for Luciferase activity using a Luciferase Assay System (Promega, # E1500) and using the Tecan Infinite 500 reader, luminescence mode, 1000 milliseconds integration time, measurement time 30 seconds.
(In general: Reporter assays use an easily measured gene product as a stand-in for the process of interest.)

In series [2] the test system is isolated perfused rat heart. Put plainly: Isolated perfused rat heart (Langendorff). Further details: species or system Wistar rats. As for the experimental part:
Male Wistar rats (200-250 g) were anesthetized using Narcoren (100 mg/kg i.p.). The heart was rapidly excised and connected to a Langendorff perfusion system (FMI GmbH, Seeheim-Ober Beerbach, Germany). The heart was perfused at a constant rate of 10 ml/min with Krebs-Henseleit bicarbonate buffer solution equilibrated with 95% O2-5% CO2. The perfusion solution contained (in mmol/l): NaCl 118; KCl 3; NaHCO3 22; KH2PO41,2; MgSO4 1,2; CaCl2 1,8; Glucose 10; Na-Pyruvat 2. A pressure transducer registered the perfusion pressure in the perfusion system. The left ventricular pressure (LVP) was measured using a second pressure transducer connected to a water-filled balloon which was inserted into the left ventricle via the left atrium. The end diastolic pressure was initially set to 8 mm Hg by adjusting the volume of the balloon. The hearts were spontaneously beating. The signals from the pressure transducer were amplified, registered and used for the calculation of the heart frequency and +dp/dt by a personal computer.

The conditions of series [3]: intravenously administrated, humans (Dschietzig T. et al. (2009)); cited from earlier work.
A short description of series [4]: In vivo plasma stability: serum levels by quantification ELISA after intravenous administration. Particulars: male Wistar rats, 240 μg/kg intravenously, three days after application.
Description: Blood samples were collected at the indicated time points after application and serum levels of each protein were measured by using a quantification ELISA.
At time points 0 hour, 1 hour, 3 days, 5 days, and 7 days after compound administration, blood samples were taken and the concentrations of the Fc-single chain Relaxin and non-modified hRelaxin2 were determined using the commercially available quantification ELISA (R&D Systems, Human Relaxin-2 Quantikine ELISA Kit, catalogue number DRL200).
Where [5] appears, read: Table 2, scR fusion protein constructs.

Read-outs that look alike come from different tables or passages of the source. Ends that are not written are not given here.

Regarding “Relaxin Fc: human Relaxin 2 (B chain-C chain-A chain) fused via IleGluGlyArgMetAsp to N terminal end of human IgG1 Fc”, the entries for the “biological activity (activation of LGR7), in words” value (shortened to “biological activity”) in series [1] and in series [1] (listed as human wildtype Relaxin 2 molecule with its orientation B chain-C chain-A chain f) were “no activity” and “does not show any detectable activity”, respectively. Also, in series [1] (setting [5]), the “EC50 (M)” value was “not detectable”.

In the case of “hRelaxin 2: commercially available recombinant expressed human Relaxin 2 (R&D Systems, catalogue number 6586-RN-025), positive control (alpha QLYSALANKCCHVGCTKRSLARFC; beta SWMEEVIKLCGRELVRAQIAICGMSTWS; listed as Homo Sapiens)”, in series [2] (concentration of 1 nM), the “contractility (inotropic activity)” value is listed as “negative inotrophic activity”, the coronary flow result is “increase” and the heart rate entry is “increase”. The “potency relative to scR-Fc 13” value in series [2] (isolated perfused rat heart) is listed as “ten fold more potent”. Also, in series [2] (perfusion, FIG. 11), the coronary flow result is recorded as “significant increase”, the heart rate entry is on record as “significant increase”, the “left ventricular diastolic pressure” value was “decrease” and the “left ventricular pressure (+dp/dtmax)” value is recorded as “decrease”. Further, the half-life entry in series [3] is reported as “less than 10 minutes”. In series [4], the “serum concentration (ELISA)” value is on record as “undetectable”.

Regarding “scR14: single chain human Relaxin 3 A-L-B, linker GlyGlyGlySerGlyGlyGlySerGly; non-purified; SEQ ID NO: 14 (DVLAGLSSSCCKWGCSKSEISSLCGGGSGGGSGRAAPYGVRLCGREFIRAVIFTCGGSRW; ends and bridges not checked; cysteine pairing not given here)”, the “biological activity” value in series [1] was “detectable biological activity”.

As to “scR-Var7: single chain human Relaxin 2, linker LysArgSerLeuSerArgLysLysArg; B chain C terminus linked via IleGluGlyArgMetAsp to human IgG1 Fc; SEQ ID NO: 40”, the “EC50 (M)” value in series [1] (setting [5]) is recorded as “active (EC50 n.d.)”.

Consider “scR-Var8: human IgG1 Fc linked via IleGluGlyArgMetAsp to A chain N terminus; A-B linker LysArgSerLeuSerArgLysLysArg; SEQ ID NO: 41”, for which the “EC50 (M)” value in series [1] (setting [5]) is given as “active (EC50 n.d.)”.

B1: scR1: single chain human Relaxin 2 A-L-B, linker GlyGlyGly; Myc, hemagglutinin and 6 Histidine tags; SEQ ID NO: 1 (protein)
chain: EQKLISEEDLQLYSALANKCCHVGCTKRSLARFCGGGSWMEEVIKLCGRELVRAQIAICGMSTWSYPYDVPDYAHHHHHH
As for B1, the “EC50 (M)” value in series [1] (Table 1, scR constructs) was “not detectable”.

B2: scR15: single chain human Relaxin 3 A-L-B, linker GlyGlyGlySerGlyGlyGlySerGly; Myc tag; SEQ ID NO: 15 (protein)
chain: EQKLISEEDLDVLAGLSSSCCKWGCSKSEISSLCGGGSGGGSGRAAPYGVRLCGREFIRAVIFTCGGSRW
modifications: ends and bridges not checked
In the case of B2, in series [1], the “biological activity” value is listed as “detectable biological activity”.

B3: scR-Fc 18: C terminal end of scR4 linked via 21 amino acid linker SEQ ID NO: 174 to human IgG1 Fc; SEQ ID NO: 33 (protein)
chain: QLYSALANKCCHVGCTKRSLARFCGGGSGGGSGSWMEEVIKLCGRELVRAQIAICGMSTWSGGGSGGGSGTLVTVSSESKYGPPCPPCPAPEAAAPELLGGPSVFLFPPKPKDTLMISRTPEVTCVVVDVSHEDPEVKFNWYVDGVEVHNAKTKPREEQYNSTYRVVSVLTVLHQDWLNGKEYKCKVSNKALPAPIEKTISKAKGQPREPQVYTLPPSRDELTKNQVSLTCLVKGFYPSDIAVEWESNGQPENNYKTTPPVLDSDGSFFLYSKLTVDKSRWQQGNVFSCSVMHEALHNHYTQKSLSLSPGK
modifications: relaxin fusion polypeptide
With B3, the “EC50 (M)” value in series [1] (setting [5]) is given as “active (EC50 n.d.)”.

B4: scR20: B chain of human Relaxin 3-linker SEQ ID NO: 139-A chain of human Relaxin 2; Myc tag; SEQ ID NO: 156 (protein)
chain: EQKLISEEDLRAAPYGVRLCGREFIRAVIFTCGGSRWGGGSGGGSGQLYSALANKCCHVGCTKRSLARFC
modifications: ends and bridges not checked
As to B4, the “EC50 (M)” value in series [1] (Table 1, scR constructs) is given as “not detectable”.

B5: scR2: single chain human Relaxin 2 A-L-B, linker GlyGlyGlySerGly; Myc, hemagglutinin and 6 Histidine tags; SEQ ID NO: 2 (protein)
chain: EQKLISEEDLQLYSALANKCCHVGCTKRSLARFCGGGSGSWMEEVIKLCGRELVRAQIAICGMSTWSYPYDVPDYAHHHHHH
In the case of B5, the “EC50 (M)” value in series [1] (Table 1, scR constructs) is given as “not detectable”.

B6: scR13: single chain human Relaxin 2 A-L-B, linker LysArgSerLeuSerArgLysLysArg; non-purified; SEQ ID NO: 13 (protein)
chain: QLYSALANKCCHVGCTKRSLARFCKRSLSRKKRSWMEEVIKLCGRELVRAQIAICGMSTWS
modifications: ends and bridges not checked
With B6, the “biological activity” value in series [1] is reported as “lower activity”. Also, in series [1] (Table 1, scR constructs), the “EC50 (M)” value is reported as “active (EC50 n.d.)”.

B7: scR18: B chain of human Relaxin 2-linker SEQ ID NO: 139-A chain of human Relaxin 3; Myc tag; SEQ ID NO: 154 (protein)
chain: EQKLISEEDLSWMEEVIKLCGRELVRAQIAICGMSTWSGGGSGGGSGDVLAGLSSSCCKWGCSKSEISSLC
modifications: relaxin fusion polypeptide
For the molecule B7, the “EC50 (M)” value in series [1] (Table 1, scR constructs) is “not detectable”.

B8: scR17: A chain of human Relaxin 3-linker SEQ ID NO: 139-B chain of human Relaxin 2; Myc tag; SEQ ID NO: 153 (protein)
chain: EQKLISEEDLDVLAGLSSSCCKWGCSKSEISSLCGGGSGGGSGSWMEEVIKLCGRELVRAQIAICGMSTWS
modifications: relaxin fusion polypeptide
On to B8, for which, in series [1], the “biological activity” value is on record as “reduced activity”.

B9: scR6: single chain human Relaxin 2 A-L-B, fifteen amino acid linker SEQ ID NO: 173; Myc, hemagglutinin, 6 Histidine tags; SEQ ID NO: 6 (protein)
chain: EQKLISEEDLQLYSALANKCCHVGCTKRSLARFCGGGSGGGSGGGSGGGSWMEEVIKLCGRELVRAQIAICGMSTWSYPYDVPDYAHHHHHH
With B9, the “EC50 (M)” value in series [1] (Table 1, scR constructs) is given as “not detectable”.

B10: scR16: human Relaxin 2 B chain-linker GlyGlyGlySerGlyGlyGlySerGly-A chain; Myc tag; SEQ ID NO: 152 (protein)
chain: EQKLISEEDLSWMEEVIKLCGRELVRAQIAICGMSTWSGGGSGGGSGQLYSALANKCCHVGCTKRSLARFC
For the molecule B10, in series [1] (Table 1, scR constructs), the “EC50 (M)” value is “not detectable”.

B11: scR19: A chain of human Relaxin 2-linker SEQ ID NO: 139-B chain of human Relaxin 3; Myc tag; SEQ ID NO: 155 (protein)
chain: EQKLISEEDLQLYSALANKCCHVGCTKRSLARFCGGGSGGGSGRAAPYGVRLCGREFIRAVIFTCGGSRW
modifications: ends and bridges not checked
For the molecule B11, in series [1], the “biological activity” value is recorded as “further reduction in the activity”. Besides, the “EC50 (M)” value in series [1] (Table 1, scR constructs) is on record as “active (EC50 n.d.)”.
